# Measurements taken from patent publication US12269859B2, “Synthetic immune receptors and methods of use thereof” (Angeles Therapeutics, Inc., priority 2016, dated 2025).
# B1: 040417-R02 (protein)
# chain: MALPVTALLLPLALLLHAARPEVQLVESGGGLVQPGRSLRLSCAASGFTFDDYAMHWVRQAPGKGLEWVSGISWNSGSIGYADSVKGRFTISRDNAKNSLYLQMNSLRAEDTALYYCAKDKGGGYYDFWSGSDYWGQGTLVTVSSLEDLKNVFPPEVAVFEPSKAEIAHTQKATLVCLATGFYPDHVELSWWVNGKEVHSGVCTDPQPLKEQPALNDSRYCLSSRLRVSATFWQNPRNHFRCQVQFYGLSENDEWTQDRAKPVTQIVSAEAWGRADCGITSASYHQGVLSATILYEILLGKATLYAVLVSALVLMAMVKRKDSRGRAKRSGSGATNFSLLKQAGDVEENPGPTSMDWIWRILFLVGAATGAHSFESSELTQDPAVSVALGQTVRITCQGDSLRSYYASWYQQKPGQAPVLVIYGKNNRPSGIPDRFSGSSSGNTASLTITGAQAEDEADYYCNSRDSSGWVFGGGTKLTVLTRIQNPDPAVYQLRDSKSSDKSVCLFTDFDSQTNVSQSKDSDVYITDKCVLDMRSMDFKSNSAVAWSNKSDFACANAFNNSIIPEDTFFPSSDVPCDVKLVEKSFETDTNLNFQNLSVIGFRILLLKVAGFNLLMTLRLWSSRAKRSGSGVKQTLNFDLLKLAGDVESNPGPSRGHMTEYKPTVRLATRDDVPRAVRTLAAAFADYPATRHTVDPDRHIERVTELQELFLTRVGLDIGKVWVADDGAAVAVWTTPESVEAGAVFAEIGPRMAELSGSRLAAQQQMEGLLAPHRPKEPAWFLATVGVSPDHQGKGLGSAVVLPGVEAAERAGVPAFLETSAPRNLPFYERLGFTVTADVEVPEGPRTWCMTRKPGA
# B2: 012517-E12 (protein)
# chain: MALPVTALLLPLALLLHAARPLEGKPIPNPLLGLDSTGSGEDLKNVFPPEVAVFEPSKAEIAHTQKATLVCLATGFYPDHVELSWWVNGKEVHSGVCTDPQPLKEQPALNDSRYCLSSRLRVSATFWQNPRNHFRCQVQFYGLSENDEWTQDRAKPVTQIVSAEAWGRADCGITSASYHQGVLSATILYEILLGKATLYAVLVSALVLMAMVKRKDSRGRAKRSGSGATNFSLLKQAGDVEENPGPTSMALPVTALLLPLALLLHAARPDIQMTQTTSSLSASLGDRVTISCRASQDISNYLNWYQQKPDGTVKLLIYYTSILHSGVPSRFSGSGSGTDYSLTISNLEQEDFATYFCQQGNTLPWTFGGGTKLEIKAGGGGSGGGGSGGGGSEVQLVESGGGLVKPGGSLKLSCAASGFAFSIYDMSWVRQTPEKRLEWVAYISSGGGTYYPDTVKGRFTISRDNAKNTLYLQMSSLKSEDTAMYYCARHSGYGTHWGVLFAYWGQGTLVTVSATREQKLISEEDGSGIQNPDPAVYQLRDSKSSDKSVCLFTDFDSQTNVSQSKDSDVYITDKCVLDMRSMDFKSNSAVAWSNKSDFACANAFNNSIIPEDTFFPSSDVPCDVKLVEKSFETDTNLNFQNLSVIGFRILLLKVAGFNLLMTLRLWSSRAKRSGSGVKQTLNFDLLKLAGDVESNPGPSRGHMTEYKPTVRLATRDDVPRAVRTLAAAFADYPATRHTVDPDRHIERVTELQELFLTRVGLDIGKVWVADDGAAVAVWTTPESVEAGAVFAEIGPRMAELSGSRLAAQQQMEGLLAPHRPKEPAWFLATVGVSPDHQGKGLGSAVVLPGVEAAERAGVPAFLETSAPRNLPFYERLGFTVTADVEVPEGPRTWCMTRKPGA
# B3: 040417-V03 (protein)
# chain: MALPVTALLLPLALLLHAARPEVQLVESGGGLVQPGRSLRLSCAASGFTFDDYAMHWVRQAPGKGLEWVSGISWNSGSIGYADSVKGRFTISRDNAKNSLYLQMNSLRAEDTALYYCAKDKGGGYYDFWSGSDYWGQGTLVTVSSLEIQNPDPAVYQLRDSKSSDKSVCLFTDFDSQTNVSQSKDSDVYITDKCVLDMRSMDFKSNSAVAWSNKSDFACANAFNNSIIPEDTFFPSSDVPCDVKLVEKSFETDTNLNFQNLSVIGFRILLLKVAGFNLLMTLRLWSSRAKRSGSGVKQTLNFDLLKLAGDVESNPGPTSMDWIWRILFLVGAATGAHSFESSELTQDPAVSVALGQTVRITCQGDSLRSYYASWYQQKPGQAPVLVIYGKNNRPSGIPDRFSGSSSGNTASLTITGAQAEDEADYYCNSRDSSGWVFGGGTKLTVLTREDLKNVFPPEVAVFEPSKAEIAHTQKATLVCLATGFYPDHVELSWWVNGKEVHSGVCTDPQPLKEQPALNDSRYCLSSRLRVSATFWQNPRNHFRCQVQFYGLSENDEWTQDRAKPVTQIVSAEAWGRADCGITSASYHQGVLSATILYEILLGKATLYAVLVSALVLMAMVKRKDSRGRAKRSGSGATNFSLLKQAGDVEENPGPSRGHMTEYKPTVRLATRDDVPRAVRTLAAAFADYPATRHTVDPDRHIERVTELQELFLTRVGLDIGKVWVADDGAAVAVWTTPESVEAGAVFAEIGPRMAELSGSRLAAQQQMEGLLAPHRPKEPAWFLATVGVSPDHQGKGLGSAVVLPGVEAAERAGVPAFLETSAPRNLPFYERLGFTVTADVEVPEGPRTWCMTRKPGA
# B4: 040417-W08 (protein)
# chain: MALPVTALLLPLALLLHAARPQVQLVQSGAEVKKPGASVKVSCKASGYTFTSYDINWVRQATGQGLEWMGWMNPNSGNTGYAQKFQGRVTMTRNTSISTAYMELSSLRSEDTAVYYCARGDSTKVEIKLEIQNPDPAVYQLRDSKSSDKSVCLFTDFDSQTNVSQSKDSDVYITDKCVLDMRSMDFKSNSAVAWSNKSDFACANAFNNSIIPEDTFFPSSDVPCDVKLVEKSFETDTNLNFQNLSVIGFRILLLKVAGFNLLMTLRLWSSRAKRSGSGVKQTLNFDLLKLAGDVESNPGPTSMDWIWRILFLVGAATGAHSFEQSVLTQPRSVSGSPGQSVTISCTGTSSDVGGYNYVSWYQQHPGEAPKLIIYDADKRPSGISNRFSSGKSGNTASLTISGLQVEDEADYYCCSYAGGSTWVFGGGTKVTVLTREDLKNVFPPEVAVFEPSKAEIAHTQKATLVCLATGFYPDHVELSWWVNGKEVHSGVCTDPQPLKEQPALNDSRYCLSSRLRVSATFWQNPRNHFRCQVQFYGLSENDEWTQDRAKPVTQIVSAEAWGRADCGITSASYHQGVLSATILYEILLGKATLYAVLVSALVLMAMVKRKDSRGRAKRSGSGATNFSLLKQAGDVEENPGPSRGHMTEYKPTVRLATRDDVPRAVRTLAAAFADYPATRHTVDPDRHIERVTELQELFLTRVGLDIGKVWVADDGAAVAVWTTPESVEAGAVFAEIGPRMAELSGSRLAAQQQMEGLLAPHRPKEPAWFLATVGVSPDHQGKGLGSAVVLPGVEAAERAGVPAFLETSAPRNLPFYERLGFTVTADVEVPEGPRTWCMTRKPGA
# B5: 091216-A03 (protein)
# chain: MALPVTALLLPLALLLHAARPLEGKPIPNPLLGLDSTGSGEDLKNVFPPEVAVFEPSKAEIAHTQKATLVCLATGFYPDHVELSWWVNGKEVHSGVCTDPQPLKEQPALNDSRYCLSSRLRVSATFWQNPRNHFRCQVQFYGLSENDEWTQDRAKPVTQIVSAEAWGRADCGITSASYHQGVLSATILYEILLGKATLYAVLVSALVLMAMVKRKDSRGRAKRSGSGATNFSLLKQAGDVEENPGPTSTMALPVTALLLPLALLLHAARPDIQMTQSPSSLSASVGDRVTITCRSSQSIVHSVGNTFLEWYQQKPGKAPKLLIYKVSNRFSGVPSRFSGSGSGTDFTLTISSLQPEDFATYYCFQGSQFPYTFGQGTKVEIKRGGGGSGGGGSGGGGSEVQLVESGGGLVQPGGSLRLSCAASGYEFSRSWMNWVRQAPGKGLEWVGRIYPGDGDTNYSGKFKGRFTISADTSKNTAYLQMNSLRAEDTAVYYCARDGSSWDWYFDVWGQGTLVTVSSTREQKLISEEDGSGIQNPDPAVYQLRDSKSSDKSVCLFTDFDSQTNVSQSKDSDVYITDKCVLDMRSMDFKSNSAVAWSNKSDFACANAFNNSIIPEDTFFPSSDVPCDVKLVEKSFETDTNLNFQNLSVIGFRILLLKVAGFNLLMTLRLWSSRAKRSGSGVKQTLNFDLLKLAGDVESNPGPSRGHMTEYKPTVRLATRDDVPRAVRTLAAAFADYPATRHTVDPDRHIERVTELQELFLTRVGLDIGKVWVADDGAAVAVWTTPESVEAGAVFAEIGPRMAELSGSRLAAQQQMEGLLAPHRPKEPAWFLATVGVSPDHQGKGLGSAVVLPGVEAAERAGVPAFLETSAPRNLPFYERLGFTVTADVEVPEGPRTWCMTRKPGA
# modifications: Synthetic Immune Receptor (SIR)
# B6: 081516-I03 (protein)
# chain: MALPVTALLLPLALLLHAARPLEGKPIPNPLLGLDSTGSGEDLKNVFPPEVAVFEPSKAEIAHTQKATLVCLATGFYPDHVELSWWVNGKEVHSGVCTDPQPLKEQPALNDSRYCLSSRLRVSATFWQNPRNHFRCQVQFYGLSENDEWTQDRAKPVTQIVSAEAWGRADCGITSASYHQGVLSATILYEILLGKATLYAVLVSALVLMAMVKRKDSRGRAKRSGSGATNFSLLKQAGDVEENPGPTSTMALPVTALLLPLALLLHAARPDIVMTQSPSSLSASVGDRVTITCKASQSVTNDVAWYQQKPGKAPKLLIYYASNRYTGVPSRFSGSGSGTDFTLTISSLQPEDFATYYCQQDYRSPWTFGGGTKVEIKRGGGGSGGGGSGGGGSQVQLEESGGGVVRPGRSLRLSCAASGFTFSDYGVNWIRQAPGKGLEWVTIIWGDGRTDYNSALKSRFTVSRNNSNNTLSLQMNSLTTEDTAVYYCVRAPGNRAMEYWGQGVLVTVSSTREQKLISEEDLGSGTPFPSLAPPIMLLVDGKQQMVVVCLVLDVAPPGLDSPIWFSAGNGSALDAFTYGPSPATDGTWTNLAHLSLPSEELASWEPLVCHTGPGAEGHSRSTQPMHLSGEASTARTCPQEPLRGTPGGALWLGVLRLLLFKLLLFDLLLTCSCLCDPAGPLPSPATTTRLRALGSHRLHPATETGGREATSSPRPQPRDRRWGDTPPGRKPGSPVRAKRSGSGVKQTLNFDLLKLAGDVESNPGPSRSRGHMTEYKPTVRLATRDDVPRAVRTLAAAFADYPATRHTVDPDRHIERVTELQELFLTRVGLDIGKVWVADDGAAVAVWTTPESVEAGAVFAEIGPRMAELSGSRLAAQQQMEGLLAPHRPKEPAWFLATVGVSPDHQGKGLGSAVVLPGVEAAERAGVPAFLETSAPRNLPFYERLGFTVTADVEVPEGPRTWCMTRKPGA
# modifications: Polynucleotide encoding a Synthetic Immune Receptor (SIR)
# System: target antigen-expressing cell line
# Assay: Jurkat NFAT-GFP assay, coculture with target cell lines expressing the respective target antigen (summary Table 10A)
# Format: cell-based, human
# Design: key: The signs +/−, +, 2+ etc. after the name of the cell lines indicate the relative degree of positivity on the Jurkat-NFAT-GFP assay as measured by the % GFP positive cells; +: relative degree of positivity on the Jurkat-NFAT-GFP assay as measured by the % GFP positive cells; 2+: relative degree of positivity on the Jurkat-NFAT-GFP assay as measured by the % GFP positive cells
# Conditions: SIR-expressing Jurkat-NFAT-GFP cells cocultured with NALM6; relative % GFP positive cells
# Method in brief: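 Coculture of SIR-bearing Jurkat NFAT-GFP reporters with target cells, ~1:2 E:T, ~4–18 h. FACS quantified % GFP+ cells, ranked semi-quantitatively against parental Jurkat-NFAT-GFP.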
row,Molecule,NFAT-GFP ASSAY Positive Cell lines: NALM6
1,B1,(+)
2,B2,(+/−)

# Same assay, conditions: SIR-expressing Jurkat-NFAT-GFP cells cocultured with RAJI; relative % GFP positive cells
row,Molecule,NFAT-GFP ASSAY Positive Cell lines: RAJI
1,B3,RAJI (+/−)
2,B4,RAJI (2+)
3,B5,RAJI (+)
4,B2,"RAJI (+), NALM6"
5,B6,RAJI (+/−)
